We go through 1 molecule from article PMC29063.

This assay deals with GST-p35-C/EBPβ. In words: pull-down.

B1: Elk-1 (wild type), in vitro translated (natural protein)
chain: MDPSVTLWQFLLQLLREQGNGHIISWTSRDGGEFKLVDAEEVARLWGLRKNKTNMNYDKLSRALRYYYDKNIIRKVSGQKFVYKFVSYPEVAGCSTEDCPPQPEVSVTSTMPNVAPAAIHAAPGDTVSGKPGTPKGAGMAGPGGLARSSRNEYMRSGLYSTFTIQSLQPQPPPHPRPAVVLPSAAPAGAAAPPSGSRSTSPSPLEACLEAEEAGLPLQVILTPPEAPNLKSEELNVEPGLGRALPPEVKVEGPKEELEVAGERGFVPETTKAEPEVPPQEGVPARLPAVVMDTAGQAGGHAASSPEISQPQKGRKPRDLELPLSPSLLGGPGPERTPGSGSGSGLQAPGPALTPSLLPTHTLTPVLLTPSSLPPSIHFWSTLSPIAPRSPAKLSFQFPSSGSAQVHIPSISVDGLSTPVVLSPGPQKP
modifications: labeled with [35S] methionine
For the molecule B1, the percent of input retained on the beads was 35 to 45%.
